According to patent US20130266576A1 (Novo Nordisk, published 2013):
Substitutions are numbered along the chain they refer to.

B1: anti-FVIII 4F143 (antibody, mouse IgG1, V domains shown)
VH: QIQFVQSGPELKKPGETVKISCKASGYTFTNYGMNWVKQAPGKGLKWMGWINSYTGEPTYADDFKGRFAFSLETSASTAYLQINNLKNEDTATYFCARGASYAMDYWGQGTSVTVSS
VL: DVQITQSPSYLAASPGETITINCRASKSISKYLAWYQEKPVKTNKLLIYSGSTLQSGIPSRFSGSGSGTDFTLTISSLEPEDFAMYYCQQHYEYPLTFGAGTKLELKR
notes: Mouse monoclonal from hybridoma, murine IgG1 heavy chain and kappa light chain; also called Anti-FVIIIa 4F143
B2: anti-FVIII 4F50 (antibody, mouse IgG1, V domains shown)
VH: B1 VH with A69D, Y106H
VL: B1 VL with T20S
notes: Mouse monoclonal, murine IgG1 heavy chain and kappa light chain; also called Anti-FVIIIa 4F50

Tests used:
[1] = target: T1, B-domain deleted factor VIII (FVIII) (human, UniProt P00451 20-759; P00451 1668-2351); assay: cell-based or functional assay
T1 sequence 1: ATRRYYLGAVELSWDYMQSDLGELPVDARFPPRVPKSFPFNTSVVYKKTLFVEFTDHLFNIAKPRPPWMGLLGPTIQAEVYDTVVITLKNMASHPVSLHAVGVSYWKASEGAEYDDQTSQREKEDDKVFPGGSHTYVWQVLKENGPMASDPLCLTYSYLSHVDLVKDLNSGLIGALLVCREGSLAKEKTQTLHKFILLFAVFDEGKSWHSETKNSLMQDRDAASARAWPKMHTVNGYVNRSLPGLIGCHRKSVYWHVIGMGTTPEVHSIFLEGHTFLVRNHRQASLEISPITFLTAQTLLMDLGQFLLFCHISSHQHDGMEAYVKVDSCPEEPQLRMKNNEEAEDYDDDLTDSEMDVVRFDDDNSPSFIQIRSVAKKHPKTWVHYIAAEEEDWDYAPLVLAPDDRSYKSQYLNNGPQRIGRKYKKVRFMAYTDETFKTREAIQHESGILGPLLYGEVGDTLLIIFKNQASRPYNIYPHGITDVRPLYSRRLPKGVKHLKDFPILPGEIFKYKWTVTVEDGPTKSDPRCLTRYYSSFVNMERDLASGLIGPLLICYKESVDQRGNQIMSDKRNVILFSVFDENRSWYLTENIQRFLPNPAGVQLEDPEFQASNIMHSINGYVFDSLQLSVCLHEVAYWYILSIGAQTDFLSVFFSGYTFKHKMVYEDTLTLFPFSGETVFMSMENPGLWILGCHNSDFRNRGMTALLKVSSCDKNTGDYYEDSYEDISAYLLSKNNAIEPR
T1 sequence 2: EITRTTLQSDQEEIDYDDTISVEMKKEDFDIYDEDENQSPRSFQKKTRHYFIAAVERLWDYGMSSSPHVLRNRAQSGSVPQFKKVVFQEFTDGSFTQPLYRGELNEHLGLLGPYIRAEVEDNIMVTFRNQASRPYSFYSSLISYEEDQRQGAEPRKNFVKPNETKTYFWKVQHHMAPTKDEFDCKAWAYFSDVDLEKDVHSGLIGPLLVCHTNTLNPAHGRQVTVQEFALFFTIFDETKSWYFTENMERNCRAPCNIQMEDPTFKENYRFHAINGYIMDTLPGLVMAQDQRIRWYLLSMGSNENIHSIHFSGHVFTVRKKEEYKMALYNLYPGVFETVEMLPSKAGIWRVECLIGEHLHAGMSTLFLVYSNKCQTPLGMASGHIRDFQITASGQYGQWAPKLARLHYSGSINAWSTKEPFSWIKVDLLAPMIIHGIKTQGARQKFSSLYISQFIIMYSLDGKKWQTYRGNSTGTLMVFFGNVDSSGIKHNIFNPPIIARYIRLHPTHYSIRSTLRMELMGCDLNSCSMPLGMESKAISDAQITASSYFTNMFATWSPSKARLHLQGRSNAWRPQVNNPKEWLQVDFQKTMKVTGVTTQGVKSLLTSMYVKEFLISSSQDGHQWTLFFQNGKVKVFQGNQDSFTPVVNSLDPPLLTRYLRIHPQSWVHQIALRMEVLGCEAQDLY

[2] = target: T1, B-domain deleted factor VIII (FVIII); assay: SPR (Biacore 3000), antibody captured by rabbit anti-mouse IgG, FVIII as analyte; Kd = koff/kon
Protocol: (§1) The kinetics of FVIII binding to antibody was determined by surface plasmon resonance using a Biacore 3000 instrument. Each antibody was captured to a level of 70-110 RU in flow cell 2 of a CM5 chip coated with rabbit anti-mouse IgG antibody (GE Healthcare, Uppsala, Sweden) as described by the manufacturer. Kinetic analysis was performed at 25° C. at a flow rate of 30 μl/min in running buffer using flow cell 1 as reference. Serial two-fold dilutions of FVIII from 0 to 40 nM were analyzed. Following 3-min equilibration of the flow cells in running buffer, 150 μl FVIII were injected. The dissociation phase lasted 9 min and regeneration was performed with a 3-min pulse of 10 mM glycine, pH 1.7. The obtained reference-subtracted sensorgrams fitted well to a 1:1 Langmuir binding model which allowed for estimation of association (Kₒₙ) and dissociation (koff) rate constants and the equilibrium dissociation constant (Kd=koff/kₒₙ) using BIAevaluation 4.1 software (GE Healthcare, Uppsala, Sweden).
TABLE 2 Surface plasmon resonance analysis of the kinetics of FVIII binding to select antibodies. The listed antibodies were captured by immobilized rabbit anti-mouse IgG antibody and binding to FVIII were tested in concentrations ranging from 0 to 40 nM. […] The dissociation constrant Kd was calculated as koff/kₒₙ. […]

[3] = target: T1, B-domain deleted factor VIII (FVIII); assay: SPR (Biacore 3000), antibody captured by rabbit anti-mouse IgG, FVIII 0-40 nM as analyte, 25 C, 1:1 Langmuir fit
Protocol: as §1
TABLE 2 Surface plasmon resonance analysis of the kinetics of FVIII binding to select antibodies. The listed antibodies were captured by immobilized rabbit anti-mouse IgG antibody and binding to FVIII were tested in concentrations ranging from 0 to 40 nM. Binding curves fitted well to a 1:1 Langmuir binding isotherm which provided estimates of association (kₒₙ) and dissociation (koff) rate constants. The dissociation constrant Kd was calculated as koff/kₒₙ. Standard errors obtained from the fits are shown.

Row | Binder | Maximal level of thrombin generation, fold-increase compared to FVIII [1] [fold] | Rate of thrombin generation, fold-increase compared to FVIII [1] [fold] | Kd [2] [nM] | koff [3] [s⁻¹] | kon [3] [M⁻¹ s⁻¹]
1 | B1 | 1.7 | 1.8 | 3.5 | 0.000849 | 244000
2 | B2 |  |  | 5.6 | 0.00106 | 190000
